Assay results as given in US20120172295A1 (INDIANA UNIVERSITY RESEARCH AND TECHNOLOGY, published 2012).
Several values for one entry are separate records, joined by “and”; a condition that tells them apart may be missing. Identical values can stand only once. Like-named read-outs stand apart in the source and are kept apart here. Starred links: 1 amine or outer side, 2 acyl side, 3 side chain; linkers in the order of their positions; H or OH if unused. Positions of bridges follow the written chain, without caps; N, C: chain ends. Non-standard residues stand in square brackets, D forms with d. Groups on a side chain read outwards from the residue. No end group written: not given here. *: point of attachment. γGlu = O=C(O)[C@H](CCC(=O)[*:2])N[*:1]; PEG40kDa = 40 kDa polyethylene glycol; Stearoyl = CCCCCCCCCCCCCCCCCC(=O)*; Palmitoyl = CCCCCCCCCCCCCCCC(=O)*; Myristoyl = CCCCCCCCCCCCCC(=O)*; DMIA = not defined here; Aib = CC(C)(N)C(=O)O

Experiments:
Assay in all cases: cell-based or functional assay
GLP-1 receptor [1] = biological target: T1, GLP-1 receptor (UniProt P43220 24-463, limits assumed)
glucagon receptor [2] = biological target: T2, glucagon receptor (UniProt P47871 26-477, limits assumed)
T2 sequence (P47871 26-477 limits assumed): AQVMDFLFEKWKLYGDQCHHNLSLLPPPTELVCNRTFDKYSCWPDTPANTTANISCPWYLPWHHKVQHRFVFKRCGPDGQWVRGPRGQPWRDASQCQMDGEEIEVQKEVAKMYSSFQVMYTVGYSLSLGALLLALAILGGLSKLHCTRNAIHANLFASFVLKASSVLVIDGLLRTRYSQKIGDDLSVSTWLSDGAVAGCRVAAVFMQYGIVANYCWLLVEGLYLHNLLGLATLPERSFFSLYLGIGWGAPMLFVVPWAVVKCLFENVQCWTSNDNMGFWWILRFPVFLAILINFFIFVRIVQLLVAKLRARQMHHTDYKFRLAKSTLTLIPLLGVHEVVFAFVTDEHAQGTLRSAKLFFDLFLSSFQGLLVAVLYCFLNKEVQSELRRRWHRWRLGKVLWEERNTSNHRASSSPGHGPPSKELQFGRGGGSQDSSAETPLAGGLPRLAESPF

GLP-1 receptor [3] = biological target: T1, GLP-1 receptor; remark: listed apart in the source
GIP receptor = biological target: T3, GIP receptor (UniProt P48546 22-466)
T3 sequence (looked up): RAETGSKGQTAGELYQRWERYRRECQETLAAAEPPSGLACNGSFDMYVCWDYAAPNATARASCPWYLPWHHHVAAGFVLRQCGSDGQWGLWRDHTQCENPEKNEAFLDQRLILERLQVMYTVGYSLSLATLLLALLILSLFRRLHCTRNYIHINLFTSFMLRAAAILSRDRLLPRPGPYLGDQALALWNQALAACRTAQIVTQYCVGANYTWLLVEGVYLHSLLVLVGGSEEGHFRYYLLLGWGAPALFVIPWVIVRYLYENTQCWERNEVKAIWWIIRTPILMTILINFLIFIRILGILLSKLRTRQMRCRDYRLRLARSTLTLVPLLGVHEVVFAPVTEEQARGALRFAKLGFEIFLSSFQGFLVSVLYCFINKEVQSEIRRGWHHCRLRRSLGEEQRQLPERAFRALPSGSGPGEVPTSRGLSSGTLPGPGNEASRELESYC

GLP-1 receptor [4] = biological target: T1, GLP-1 receptor; remark: listed apart in the source
glucagon receptor [5] = biological target: T2, glucagon receptor; remark: listed apart in the source
GLP-1 receptor [6] = biological target: T1, GLP-1 receptor; remark: listed apart in the source
glucagon receptor [7] = biological target: T2, glucagon receptor; remark: listed apart in the source

With [DMIA]SQGTFTSDK([γGlu-γGlu-Palmitoyl])SKYLDERRAKDFVQWLMNT (lactam 16-20; reading uncertain) [DMIA1, E16/K20 lactam, Lys10 γE-γE-C16 (SEQ ID NO: 652)] the EC50 (GLP-1 receptor [1]) was 4 pM.

B1: Chi-2, AIB2, I7, Lys10 γE-C16 (SEQ ID NO: 649) (peptide)
peptide: H[Aib]QGTFISDK([γGlu-Palmitoyl])SKYLDEQAAKEFIAWLMNT-NH2
modifications: N-terminus assumed
SMILES: CCCCCCCCCCCCCCCC(=O)N[C@@H](CCC(=O)NCCCC[C@H](NC(=O)[C@H](CC(=O)O)NC(=O)[C@H](CO)NC(=O)[C@@H](NC(=O)[C@H](Cc1ccccc1)NC(=O)[C@@H](NC(=O)CNC(=O)[C@H](CCC(N)=O)NC(=O)C(C)(C)NC(=O)[C@@H](N)Cc1c[nH]cn1)[C@@H](C)O)[C@@H](C)CC)C(=O)N[C@@H](CO)C(=O)N[C@@H](CCCCN)C(=O)N[C@@H](Cc1ccc(O)cc1)C(=O)N[C@@H](CC(C)C)C(=O)N[C@@H](CC(=O)O)C(=O)N[C@@H](CCC(=O)O)C(=O)N[C@@H](CCC(N)=O)C(=O)N[C@@H](C)C(=O)N[C@@H](C)C(=O)N[C@@H](CCCCN)C(=O)N[C@@H](CCC(=O)O)C(=O)N[C@@H](Cc1ccccc1)C(=O)N[C@H](C(=O)N[C@@H](C)C(=O)N[C@@H](Cc1c[nH]c2ccccc12)C(=O)N[C@@H](CC(C)C)C(=O)N[C@@H](CCSC)C(=O)N[C@@H](CC(N)=O)C(=O)N[C@H](C(N)=O)[C@@H](C)O)[C@@H](C)CC)C(=O)O
In the case of B1, the EC50 (GLP-1 receptor [1]) is reported as 24 pM and 44 pM.

Binder [DMIA]SQGTFTSDK([γGlu-Palmitoyl])SKYLDERRAKDFVQWLMNT (lactam 16-20; reading uncertain) [DMIA1, E16/K20 lactam, Lys10 γE-C16 (SEQ ID NO: 651)] has an EC50 (GLP-1 receptor [1]) of 6 pM.

B2: Chi-2, AIB2, Lys10 γE-γE-C16 (SEQ ID NO: 646) (peptide)
peptide: H[Aib]QGTFTSDK([γGlu-γGlu-Palmitoyl])SKYLDEQAAKEFIAWLMNT-NH2
modifications: N-terminus assumed
SMILES: CCCCCCCCCCCCCCCC(=O)N[C@@H](CCC(=O)N[C@@H](CCC(=O)NCCCC[C@H](NC(=O)[C@H](CC(=O)O)NC(=O)[C@H](CO)NC(=O)[C@@H](NC(=O)[C@H](Cc1ccccc1)NC(=O)[C@@H](NC(=O)CNC(=O)[C@H](CCC(N)=O)NC(=O)C(C)(C)NC(=O)[C@@H](N)Cc1c[nH]cn1)[C@@H](C)O)[C@@H](C)O)C(=O)N[C@@H](CO)C(=O)N[C@@H](CCCCN)C(=O)N[C@@H](Cc1ccc(O)cc1)C(=O)N[C@@H](CC(C)C)C(=O)N[C@@H](CC(=O)O)C(=O)N[C@@H](CCC(=O)O)C(=O)N[C@@H](CCC(N)=O)C(=O)N[C@@H](C)C(=O)N[C@@H](C)C(=O)N[C@@H](CCCCN)C(=O)N[C@@H](CCC(=O)O)C(=O)N[C@@H](Cc1ccccc1)C(=O)N[C@H](C(=O)N[C@@H](C)C(=O)N[C@@H](Cc1c[nH]c2ccccc12)C(=O)N[C@@H](CC(C)C)C(=O)N[C@@H](CCSC)C(=O)N[C@@H](CC(N)=O)C(=O)N[C@H](C(N)=O)[C@@H](C)O)[C@@H](C)CC)C(=O)O)C(=O)O
Binder B2 has an EC50 (GLP-1 receptor [1]) of 1.8 pM.

B3: Chi-2, AIB2, E3, Lys10 C16 no spacer (SEQ ID NO: 647) (peptide)
peptide: H[Aib]EGTFTSDK(Palmitoyl)SKYLDEQAAKEFIAWLMNT-NH2
modifications: N-terminus assumed
SMILES: CCCCCCCCCCCCCCCC(=O)NCCCC[C@H](NC(=O)[C@H](CC(=O)O)NC(=O)[C@H](CO)NC(=O)[C@@H](NC(=O)[C@H](Cc1ccccc1)NC(=O)[C@@H](NC(=O)CNC(=O)[C@H](CCC(=O)O)NC(=O)C(C)(C)NC(=O)[C@@H](N)Cc1c[nH]cn1)[C@@H](C)O)[C@@H](C)O)C(=O)N[C@@H](CO)C(=O)N[C@@H](CCCCN)C(=O)N[C@@H](Cc1ccc(O)cc1)C(=O)N[C@@H](CC(C)C)C(=O)N[C@@H](CC(=O)O)C(=O)N[C@@H](CCC(=O)O)C(=O)N[C@@H](CCC(N)=O)C(=O)N[C@@H](C)C(=O)N[C@@H](C)C(=O)N[C@@H](CCCCN)C(=O)N[C@@H](CCC(=O)O)C(=O)N[C@@H](Cc1ccccc1)C(=O)N[C@H](C(=O)N[C@@H](C)C(=O)N[C@@H](Cc1c[nH]c2ccccc12)C(=O)N[C@@H](CC(C)C)C(=O)N[C@@H](CCSC)C(=O)N[C@@H](CC(N)=O)C(=O)N[C@H](C(N)=O)[C@@H](C)O)[C@@H](C)CC
For B3, the EC50 (glucagon receptor [2]) was 46100 pM and the EC50 (GLP-1 receptor [1]) was 5 pM.

For XSQGTFTSDYSKYLDERRAKDFVQWLMNK (DMIA at 1; E16/K20 lactam; Lys 29 with C16 acyl via γ-Glu-γ-Glu) [DMIA1, E16/K20 lactam, Lys29 γE-γE-C16 (SEQ ID NO: 654)], the EC50 (glucagon receptor [2]) was 25 pM.

B4: Peptide Chimera 2-AIB2-K30-acylated (peptide)
peptide: HXQGTFTSDYSKYLDEQAAKEFICWLMNTK
modifications: AIB at 2; Lys acylated with C18 (text says position 10, the name and the sequence say K30); 40 kDa PEG on Cys 24; C-terminal amide
B4 was tested, and the EC50 (GLP-1 receptor [3]) was 7 pM.

H[Aib]QGTFTSDYSKYLDEQAAKEFIC(PEG 40 kDa)WLMNGGPSSGAPPPSK-NH2 [mt-350] was tested, and the “% Relative activity” value (GIP receptor) was 0%, the EC50 (GIP receptor) was 77700 pM and the “% Relative activity” value (GLP-1 receptor [4]) was 58.9%. It also gave an EC50 (GLP-1 receptor [4]) of 10.7 pM.

Binder H[Aib]QGTFTSDK(Stearoyl)SKYLDEQAAKEFIC(PEG40kDa)WLMNT-NH2 [Peptide Chimera 2-AIB2-K10-acylated] has an EC50 (GLP-1 receptor [3]) of 465 pM.

B5: Chi-2, AIB2, I7, Lys10 γE-γE-C16 (SEQ ID NO: 650) (peptide)
peptide: H[Aib]QGTFISDK([γGlu-γGlu-Palmitoyl])SKYLDEQAAKEFIAWLMNT-NH2
modifications: N-terminus assumed
SMILES: CCCCCCCCCCCCCCCC(=O)N[C@@H](CCC(=O)N[C@@H](CCC(=O)NCCCC[C@H](NC(=O)[C@H](CC(=O)O)NC(=O)[C@H](CO)NC(=O)[C@@H](NC(=O)[C@H](Cc1ccccc1)NC(=O)[C@@H](NC(=O)CNC(=O)[C@H](CCC(N)=O)NC(=O)C(C)(C)NC(=O)[C@@H](N)Cc1c[nH]cn1)[C@@H](C)O)[C@@H](C)CC)C(=O)N[C@@H](CO)C(=O)N[C@@H](CCCCN)C(=O)N[C@@H](Cc1ccc(O)cc1)C(=O)N[C@@H](CC(C)C)C(=O)N[C@@H](CC(=O)O)C(=O)N[C@@H](CCC(=O)O)C(=O)N[C@@H](CCC(N)=O)C(=O)N[C@@H](C)C(=O)N[C@@H](C)C(=O)N[C@@H](CCCCN)C(=O)N[C@@H](CCC(=O)O)C(=O)N[C@@H](Cc1ccccc1)C(=O)N[C@H](C(=O)N[C@@H](C)C(=O)N[C@@H](Cc1c[nH]c2ccccc12)C(=O)N[C@@H](CC(C)C)C(=O)N[C@@H](CCSC)C(=O)N[C@@H](CC(N)=O)C(=O)N[C@H](C(N)=O)[C@@H](C)O)[C@@H](C)CC)C(=O)O)C(=O)O
Work on B5 yielded an EC50 (glucagon receptor [2]) of 7 pM and an EC50 (GLP-1 receptor [1]) of 10 pM.

In the case of H[dS]QGTFTSDK([γGlu-Palmitoyl])SKYLDEQAAKEFIAWLMNT [Chi-2, d-Ser2, Lys10 γE-C16 (SEQ ID NO: 643)], the EC50 (glucagon receptor [2]) is reported as 11 pM and the EC50 (GLP-1 receptor [1]) is reported as 1.4 pM.

B6: Chi-2, AIB2, Lys10 γE-C16 (SEQ ID NO: 645) (peptide)
peptide: H[Aib]QGTFTSDK([γGlu-Palmitoyl])SKYLDEQAAKEFIAWLMNT-NH2
modifications: N-terminus assumed
SMILES: CCCCCCCCCCCCCCCC(=O)N[C@@H](CCC(=O)NCCCC[C@H](NC(=O)[C@H](CC(=O)O)NC(=O)[C@H](CO)NC(=O)[C@@H](NC(=O)[C@H](Cc1ccccc1)NC(=O)[C@@H](NC(=O)CNC(=O)[C@H](CCC(N)=O)NC(=O)C(C)(C)NC(=O)[C@@H](N)Cc1c[nH]cn1)[C@@H](C)O)[C@@H](C)O)C(=O)N[C@@H](CO)C(=O)N[C@@H](CCCCN)C(=O)N[C@@H](Cc1ccc(O)cc1)C(=O)N[C@@H](CC(C)C)C(=O)N[C@@H](CC(=O)O)C(=O)N[C@@H](CCC(=O)O)C(=O)N[C@@H](CCC(N)=O)C(=O)N[C@@H](C)C(=O)N[C@@H](C)C(=O)N[C@@H](CCCCN)C(=O)N[C@@H](CCC(=O)O)C(=O)N[C@@H](Cc1ccccc1)C(=O)N[C@H](C(=O)N[C@@H](C)C(=O)N[C@@H](Cc1c[nH]c2ccccc12)C(=O)N[C@@H](CC(C)C)C(=O)N[C@@H](CCSC)C(=O)N[C@@H](CC(N)=O)C(=O)N[C@H](C(N)=O)[C@@H](C)O)[C@@H](C)CC)C(=O)O
Binder B6 has an EC50 (glucagon receptor [2]) of 25 pM and an EC50 (GLP-1 receptor [1]) of 1.4 pM.

With HSQGTFTSDYSKYLDSRRAQDFVQWLMKGGPSSGAPPPS-NH2 [MKGG30 PSSGAPPPS (SEQ ID NO: 523)] the EC50 (glucagon receptor [5]) was 610 pM, the “Relative Potency (%)” value (glucagon receptor [5]) was 14% and the EC50 (GLP-1 receptor [6]) was 800 pM. For the same binder, the “Relative Potency (%)” value (GLP-1 receptor [6]) was 3%.

In the case of H[Aib]QGTFTSDYSKYLD[Aib]QAAKEFIC(PEG 40 kDa)WLMNGGPSSGAPPPSK(Myristoyl)-NH2 [mt-351], the “% Relative activity” value (glucagon receptor [7]) is reported as 10.7% and the EC50 (glucagon receptor [7]) is reported as 196 pM.

H[dS]QGTFTSDK([γGlu-γGlu-Palmitoyl])SKYLDEQAAKEFIAWLMNT [Chi-2, d-Ser2, Lys10 γE-γE-C16 (SEQ ID NO: 644)] showed an EC50 (glucagon receptor [2]) of 8 pM and an EC50 (GLP-1 receptor [1]) of 3 pM.

HSQGTFTSDYSKYLDSRRAQDFVQWLMDGGPSSGAPPPS-NH2 [MDGG30 PSSGAPPPS (SEQ ID NO: 525)] was tested, and the EC50 (glucagon receptor [5]) was 120 pM, the “Relative Potency (%)” value (glucagon receptor [5]) was 72% and the EC50 (GLP-1 receptor [6]) was 130 pM. The “Relative Potency (%)” value (GLP-1 receptor [6]) was 19%.

With HSQGTFTSDYSKYLDSRRAQDFVQWLVKGGPSSGAPPPS-NH2 [VKGG30 PSSGAPPPS (SEQ ID NO: 524)] the EC50 (glucagon receptor [5]) was 1160 pM, the “Relative Potency (%)” value (glucagon receptor [5]) was 7% and the EC50 (GLP-1 receptor [6]) was 210 pM. The “Relative Potency (%)” value (GLP-1 receptor [6]) was 12%.

For H[Aib]EGTFTSDK([γGlu-γGlu-Palmitoyl])SKYLDEQAAKEFIAWLMNT [Chi-2, AIB2, E3, Lys10 γE-γE-C16 (SEQ ID NO: 648)], the EC50 (glucagon receptor [2]) was 2920 pM and the EC50 (GLP-1 receptor [1]) was 4 pM.
